Laboratory results taken from the supplement of paper PMC6757056.
± gives the standard deviation of the averaged measurements.

B1: library; a variant is named by its letters at N, in order (parent)
chain: GCUGUCACCGAGAAACUGUGAAGUAUAUCUUAAACCUGGGCACUUAAAAGAUAUAUGGAGUUAGUAGUGCAACCUGCUCGGUCUGAUGAGUCCNNNNNNGGACGAAACAGC

Assays:
cyclic di-GMP [1] = variants of: B1; test: normalized RNA/DNA level without ligand (relative to sTRSVctl = 100) (log10 (% of sTRSVctl)); HEK293T; ligand: cyclic di-GMP (c-di-GMP-II aptamer); higher = less ribozyme self-cleavage, higher mRNA level; conditions: reporter: mCherry (pCS4076), ligand present: no
Outline: (§1)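 Ribozyme switch library plasmids linked to reporters were introduced into HEK293T cells at 4 µg per 6-well well, with ligand, if any, added 1 h before. Total RNA was extracted with EDTA 72 h later, reverse-transcribed, amplified, barcoded and sequenced. RNA level was computed from RNA over DNA reads relative to a spiked-in non-cleaving sequence or the top sequences, then scaled and log-transformed. The top set was 25 sequences, values were ×100 and log10, and the cutoff was ≥100 DNA reads.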

cyclic di-GMP [2] = variants of: B1; test: normalized RNA/DNA level with ligand (relative to sTRSVctl = 100) (log10 (% of sTRSVctl)); HEK293T; ligand: cyclic di-GMP (c-di-GMP-II aptamer); ligand concentration (+) RNA-Seq: 1 mM; higher = less ribozyme self-cleavage, higher mRNA level; conditions: reporter: mCherry (pCS4076), ligand present: yes
Outline: as §1

cyclic di-GMP [3] = variants of: B1; test: FACS-Seq fitted mean relative fluorescence mCherry/BFP without ligand (log10 relative fluorescence); HEK293T; ligand: cyclic di-GMP (c-di-GMP-II aptamer); higher = higher reporter protein expression; conditions: ligand present: no
Outline: (§2)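 Fluorescence comes from a normal fit to bin counts, normalized against controls. HEK293T libraries lentivirally given a ribozyme-switch mCherry reporter and an EF1α-BFP marker were enriched, incubated 48 h with or without ligand, and sorted by mCherry/BFP into 6 bins. Bin genomic DNA was PCR-amplified, barcoded and sequenced on MiSeq. The log10(mCherry/BFP) mean was scaled to five spiked-in control ribozymes.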

cyclic di-GMP [4] = variants of: B1; test: FACS-Seq fitted mean relative fluorescence mCherry/BFP with ligand (log10 relative fluorescence); HEK293T; ligand: cyclic di-GMP (c-di-GMP-II aptamer); ligand concentration (+) FACS-Seq: 1 mM; higher = higher reporter protein expression; conditions: ligand present: yes
Outline: as §2

Variant	normalized RNA/DNA level without ligand (log10) (cyclic di-GMP [1])	normalized RNA/DNA level with ligand (log10) (cyclic di-GMP [2])	FACS-Seq fitted mean (log10) (cyclic di-GMP [3])	FACS-Seq fitted mean (log10) (cyclic di-GMP [4])
AACACC	1.56 ± 0.007	1.73 ± 0.12		
AACACG	1.55 ± 0.073	1.74 ± 0.088		
GAAACU	1.63 ± 0.035	1.79 ± 0.1		
GAAACG	1.61 ± 0.053	1.77 ± 0.069		
GAAACC	1.722 ± 0.0059	1.85 ± 0.1		
UAAACC	1.77 ± 0.027	1.85 ± 0.076		
UAAACU	1.71 ± 0.061	1.85 ± 0.15		
UAAACG	1.747 ± 0.0073	1.85 ± 0.068		
GUUCUG	1.67 ± 0.021	1.84 ± 0.15	-0.079 ± 0.018	0.284 ± 0.091
GUUCUA	1.635 ± 0.0068	1.75 ± 0.095	-0.743 ± 0.033	-0.5214 ± 0.0042
AAACCU	1.72 ± 0.018	1.84 ± 0.097		
AAACCC	1.718 ± 0.0046	1.86 ± 0.09		
AAACCA	1.57 ± 0.054	1.76 ± 0.094		
CACAAU	1.47 ± 0.11	1.68 ± 0.097		
CACAAG	1.66 ± 0.017	1.83 ± 0.11		
CACAAC	1.59 ± 0.028	1.77 ± 0.085		
CUUGGA	1.55 ± 0.031	1.73 ± 0.16	-0.381 ± 0.03	-0.107 ± 0.044
CAACCC	1.719 ± 0.015	1.82 ± 0.12		
CAACCG	1.817 ± 0.009	1.88 ± 0.071		
CAACCA	1.54 ± 0.084	1.71 ± 0.1		
AUUGAA	1.48 ± 0.079	1.66 ± 0.031	-0.159 ± 0.14	0.152 ± 0.0043
AAAGCC	1.7 ± 0.025	1.84 ± 0.13		
AAAGCA	1.656 ± 0.0051	1.77 ± 0.11		
AAAGCG	1.689 ± 0.0061	1.78 ± 0.14		
CAAAUC	1.61 ± 0.034	1.76 ± 0.091		
CAAAUG	1.64 ± 0.017	1.82 ± 0.068		

Variant	normalized RNA/DNA level without ligand (log10) (cyclic di-GMP [1])	normalized RNA/DNA level with ligand (log10) (cyclic di-GMP [2])	FACS-Seq fitted mean (log10) (cyclic di-GMP [3])	FACS-Seq fitted mean (log10) (cyclic di-GMP [4])
GUUUUG	1.61 ± 0.095	1.8 ± 0.083	0.124 ± 0.17	0.384 ± 0.05
GUUUUU	1.715 ± 0.0068	1.87 ± 0.12	-0.978 ± 0.05	-0.711 ± 0.12
CACACG	1.75 ± 0.036	1.83 ± 0.095		
CAAUCG	1.77 ± 0.039	1.89 ± 0.16		
AAAUAC	1.665 ± 0.0071	1.8 ± 0.11		
AAAUAG	1.54 ± 0.025	1.7 ± 0.16		
GAAGGG	1.53 ± 0.048	1.69 ± 0.079		
GAAGGU	1.58 ± 0.08	1.77 ± 0.052		
GAAGGC	1.62 ± 0.023	1.79 ± 0.13		
CAAACG	1.776 ± 0.013	1.84 ± 0.059		
CAAACU	1.54 ± 0.045	1.68 ± 0.072		
AUUCGG	1.7 ± 0.019	1.82 ± 0.2	-0.4 ± 0.23	0.0339 ± 0.063
AUUCGC	1.7768 ± 0.00017	1.91 ± 0.11	-0.123 ± 0.015	0.194 ± 0.063
UAAUAA	1.66 ± 0.018	1.8 ± 0.085		
UAAUAC	1.68 ± 0.013	1.81 ± 0.075		
UAAUAU	1.64 ± 0.017	1.78 ± 0.11		
UAAGAA	1.597 ± 0.008	1.74 ± 0.13		
UAAGAG	1.61 ± 0.017	1.74 ± 0.086		
UAAGAU	1.597 ± 0.0022	1.79 ± 0.13		
UAAGAC	1.647 ± 0.0022	1.82 ± 0.13		
CAAUUC	1.66 ± 0.019	1.82 ± 0.065		
CAAUUU	1.51 ± 0.095	1.71 ± 0.081		
CAAUUA	1.32 ± 0.1	1.53 ± 0.05		
CAAUUG	1.733 ± 0.0033	1.87 ± 0.065		
CUUUCU	1.65 ± 0.072	1.77 ± 0.095	-0.275 ± 0.072	0.0435 ± 0.082
CUUUCA	1.42 ± 0.11	1.66 ± 0.051	-0.391 ± 0.0064	-0.114 ± 0.028
